According to patent US20040175721A1 (UNIVERSITY OF MASSACHUSETTS A MASSACHUSETTS, published 2004):

B2: human centriolin Nud1 domain (amino acids 127-233 of centriolin) fused to the GAL4 transactivation domain (other, not shown: small tags and cut ends)
chain (part 1 of 2): ANFNQSGNIADSSLSFTFTNSSNGPNLITTQTNSQALSQPIASSNVHDNFMNNEITASKIDDGNNSKPLSPGWTDQTAYNAFGITTGMFNTTTMDDVYNYLFDDEDTPPNPKKE
chain (part 2 of 2): LEVLNLSYNLIGKIEKLDKLLKLRELNLSYNKISKIEGIENMCNLQKLNLAGNEIEHIPVWLGKKLKSLRVLNLKGNKISSLQDISKLKPLQDLISLILVENPVVTL
notes: also called TAD-hNud1; hNud1

Legend:
[1] = target: B2; test: directed yeast two-hybrid, TAD-hNud1 x LexA control
Text: (§1) A 321 base pair fragment containing amino acids 127-233 of centriolin were cloned into EcoR I and Sal I sites of pGADT7 (Clontech) to produce a fusion with the GAL4 transactivation domain (TAD). Constructs pEG202 (LexA), pGP69 (LexA-BUB2), pGP122 (LexA-BFA1) and the yeast strain SGY37 were from Elmar Schiebel (Paterson Institute for Cancer Research, Manchester, U.K.). SGY37, which contains a LacZ reporter gene under control of a LexA operator, was transformed with plasmid DNA using LiAc (Ito et al., J Bacteriol, 153:163-168, 1983) and transformants selected for on dropout medium. Methods used were semi-quantitative β-galactosidase assays (Schramm et al., Methods Cell Biol., 67:71-94, 2001) and more quantitative β-galactosidase assays with CPRG (chlorophenol red-b-D-galactopyranoside, Roche) as a substrate per the manufacturer's instructions (Clontech Yeast Protocols Handbook). Co-immunopreciptation of LexA and GAL4 TAD fusion proteins were carried out as previously described (Schramm et al., Methods Cell Biol., 67:71-94, 2001).

[2] = target: T1, LexA-tagged budding yeast Bfa1p (pGP122, LexA-BFA1) (budding yeast, UniProt P47113 1-574, limits assumed); test: directed yeast two-hybrid
T1 construct: Construct pGP122 obtained from Elmar Schiebel; also called LexA-Bfa1p; not shown: LexA part of the vector
T1 sequence (looked up): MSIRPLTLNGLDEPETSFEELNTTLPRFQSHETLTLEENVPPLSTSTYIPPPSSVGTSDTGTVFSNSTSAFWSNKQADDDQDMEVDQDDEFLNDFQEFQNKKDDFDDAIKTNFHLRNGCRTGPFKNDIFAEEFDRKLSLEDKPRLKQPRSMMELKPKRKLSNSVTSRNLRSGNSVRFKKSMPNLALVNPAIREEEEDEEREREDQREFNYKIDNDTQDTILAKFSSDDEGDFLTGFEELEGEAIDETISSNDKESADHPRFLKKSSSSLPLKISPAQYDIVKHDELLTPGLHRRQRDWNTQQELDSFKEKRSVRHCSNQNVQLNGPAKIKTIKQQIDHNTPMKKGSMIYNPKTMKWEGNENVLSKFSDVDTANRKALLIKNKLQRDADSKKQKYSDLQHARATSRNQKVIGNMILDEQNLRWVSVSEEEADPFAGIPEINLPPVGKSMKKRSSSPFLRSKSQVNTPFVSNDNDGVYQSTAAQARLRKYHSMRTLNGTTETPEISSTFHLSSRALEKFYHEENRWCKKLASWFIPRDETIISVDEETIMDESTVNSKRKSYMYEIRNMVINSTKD
Text: as §1

[3] = target: T2, LexA-tagged budding yeast Bub2p (pGP69, LexA-BUB2) (budding yeast, UniProt P26448 1-306, limits assumed); test: directed yeast two-hybrid, LexA-BUB2 x TAD control
T2 construct: Construct pGP69 obtained from Elmar Schiebel; also called LexA-Bub2p; not shown: LexA part of the pEG202-type vector
T2 sequence (looked up): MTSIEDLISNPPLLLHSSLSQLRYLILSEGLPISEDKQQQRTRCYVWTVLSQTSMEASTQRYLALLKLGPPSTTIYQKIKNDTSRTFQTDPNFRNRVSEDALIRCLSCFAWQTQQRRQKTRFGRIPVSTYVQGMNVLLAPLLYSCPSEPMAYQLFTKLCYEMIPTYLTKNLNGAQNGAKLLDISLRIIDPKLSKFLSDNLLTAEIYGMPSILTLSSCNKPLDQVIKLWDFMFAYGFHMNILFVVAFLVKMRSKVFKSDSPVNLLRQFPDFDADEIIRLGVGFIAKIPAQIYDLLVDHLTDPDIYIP
Text: as §1

B1: LexA alone (pEG202) (other, UniProt P0A7C2 1-202, looked up)
chain: MKALTARQQEVFDLIRDHISQTGMPPTRAEIAQRLGFRSPNAAEEHLKALARKGVIEIVSGASRGIRLLQEEEEGLPLVGRVAAGEPLLAQQHIEGHYQVDPSLFKPNADFLLRVSGMSMKDIGIMDGDLLAVHKTQDVRNGQVVVARIDDEVTVKRLKKQGNKVELLPENSEFKPIVVDLRQQSFTIEGLAVGVIRNGDWL
Q: Does B1 bind [1]?
A: no binding

Q: Does B2 bind [2]?
A: no binding

B3: GAL4 transactivation domain alone (other, UniProt P04386 768-881, looked up)
chain: ANFNQSGNIADSSLSFTFTNSSNGPNLITTQTNSQALSQPIASSNVHDNFMNNEITASKIDDGNNSKPLSPGWTDQTAYNAFGITTGMFNTTTMDDVYNYLFDDEDTPPNPKKE
notes: also called TAD
Q: Does B3 bind [3]?
A: no binding
